The subject of one data set is histones H3–H4. The data set is described as follows: Pull-down with recombinant histones H3–H4. To be noted: GST-ARD with H3–H4 tetramers, 20 mM Tris pH 7.5, 0.5 M NaCl, 23 °C, 1 h; IVT full length TONSL with H3.1–H4 beads, 2 h. The format is binding.
The subject of a further data set is U-2-OS cells. The data set is described as follows: Clonogenic assay upon GFP-TONSL induction. The format is cell-based. Conditions: siTONSL; presence and absence of CPT 50 nM 24 h; 12-15 days; +tet.

B1: WT: human TONSL Ankyrin Repeat Domain (residues 512–692), wild type (protein)
chain: GHLGRRKGSKWNRRNDMGETLLHRACIEGQLRRVQDLVRQGHPLNPRDYCGWTPLHEACNYGHLEIVRFLLDHGAAVDDPGGQGCEGITPLHDALNCGHFEVAELLLERGASVTLRTRKGLSPLETLQQWVKLYRRDLDLETRQKARAMEMLLQAAASGQDPHSSQAFHTPSSLLFDPETS
modifications: left off: GST, end not stated, cleaved
For the molecule B1, the “direct binding to histones H3–H4 in vitro” value with histones H3–H4 was “bound directly to histones H3–H4”.

B2: TONSL WT: siRNA resistant GFP-TONSL, wild type, inducible in U-2-OS (protein)
chain: MSLERELRQLSKAKAKAQRAGQRREEAALCHQLGELLAGHGRYAEALEQHWQELQLRERADDPLGCAVAHRKIGERLAEMEDYPAALQHQHQYLELAHSLRNHTELQRAWATIGRTHLDIYDHCQSRDALLQAQAAFEKSLAIVDEELEGTLAQGELNEMRTRLYLNLGLTFESLQQTALCNDYFRKSIFLAEQNHLYEDLFRARYNLGTIHWRAGQHSQAMRCLEGARECAHTMRKRFMESECCVVIAQVLQDLGDFLAAKRALKKAYRLGSQKPVQRAAICQNLQHVLAVVRLQQQLEEAEGRDPQGAMVICEQLGDLFSKAGDFPRAAEAYQKQLRFAELLDRPGAERAIIHVSLATTLGDMKDHHGAVRHYEEELRLRSGNVLEEAKTWLNIALSREEAGDAYELLAPCFQKALSCAQQAQRPQLQRQVLQHLHTVQLRLQPQEAPETETRLRELSVAEDEDEEEEAEEAAATAESEALEAGEVELSEGEDDTDGLTPQLEEDEELQGHLGRRKGSKWNRRNDMGETLLHRACIEGQLRRVQDLVRQGHPLNPRDYCGWTPLHEACNYGHLEIVRFLLDHGAAVDDPGGQGCEGITPLHDALNCGHFEVAELLLERGASVTLRTRKGLSPLETLQQWVKLYRRDLDLETRQKARAMEMLLQAAASGQDPHSSQAFHTPSSLLFDPETSPPLSPCPEPPSNSTRLPEASQAHVRVSPGQAAPAMARPRRSRHGPASSSSSSEGEDSAGPARPSQKRPRCSATAQRVAAWTPGPASNREAATASTSRAAYQAAIRGVGSAQSRLGPGPPRGHSKALAPQAALIPEEECLAGDWLELDMPLTRSRRPRPRGTGDNRRPSSTSGSDSEESRPRARAKQVRLTCMQSCSAPVNAGPSSLASEPPGSPSTPRVSEPSGDSSAAGQPLGPAPPPPIRVRVQVQDHLFLIPVPHSSDTHSVAWLAEQAAQRYYQTCGLLPRLTLRKEGALLAPQDLIPDVLQSNDEVLAEVTSWDLPPLTDRYRRACQSLGQGEHQQVLQAVELQGLGLSFSACSLALDQAQLTPLLRALKLHTALRELRLAGNRLGDKCVAELVAALGTMPSLALLDLSSNHLGPEGLRQLAMGLPGQATLQSLEELDLSMNPLGDGCGQSLASLLHACPLLSTLRLQACGFGPSFFLSHQTALGSAFQDAEHLKTLSLSYNALGAPALARTLQSLPAGTLLHLELSSVAAGKGDSDLMEPVFRYLAKEGCALAHLTLSANHLGDKAVRDLCRCLSLCPSLISLDLSANPEISCASLEELLSTLQKRPQGLSFLGLSGCAVQGPLGLGLWDKIAAQLRELQLCSRRLCAEDRDALRQLQPSRPGPGECTLDHGSKLFFRRL
modifications: left off: GFP, end not stated, kept
For B2, the “viability of TONSL depleted cells (colony formation)” value in the data set with U-2-OS cells is “partially rescued viability”.

B3: Full length TONSL: in vitro-translated full length TONSL (protein)
chain: MSLERELRQLSKAKAKAQRAGQRREEAALCHQLGELLAGHGRYAEALEQHWQELQLRERADDPLGCAVAHRKIGERLAEMEDYPAALQHQHQYLELAHSLRNHTELQRAWATIGRTHLDIYDHCQSRDALLQAQAAFEKSLAIVDEELEGTLAQGELNEMRTRLYLNLGLTFESLQQTALCNDYFRKSIFLAEQNHLYEDLFRARYNLGTIHWRAGQHSQAMRCLEGARECAHTMRKRFMESECCVVIAQVLQDLGDFLAAKRALKKAYRLGSQKPVQRAAICQNLQHVLAVVRLQQQLEEAEGRDPQGAMVICEQLGDLFSKAGDFPRAAEAYQKQLRFAELLDRPGAERAIIHVSLATTLGDMKDHHGAVRHYEEELRLRSGNVLEEAKTWLNIALSREEAGDAYELLAPCFQKALSCAQQAQRPQLQRQVLQHLHTVQLRLQPQEAPETETRLRELSVAEDEDEEEEAEEAAATAESEALEAGEVELSEGEDDTDGLTPQLEEDEELQGHLGRRKGSKWNRRNDMGETLLHRACIEGQLRRVQDLVRQGHPLNPRDYCGWTPLHEACNYGHLEIVRFLLDHGAAVDDPGGQGCEGITPLHDALNCGHFEVAELLLERGASVTLRTRKGLSPLETLQQWVKLYRRDLDLETRQKARAMEMLLQAAASGQDPHSSQAFHTPSSLLFDPETSPPLSPCPEPPSNSTRLPEASQAHVRVSPGQAAPAMARPRRSRHGPASSSSSSEGEDSAGPARPSQKRPRCSATAQRVAAWTPGPASNREAATASTSRAAYQAAIRGVGSAQSRLGPGPPRGHSKALAPQAALIPEEECLAGDWLELDMPLTRSRRPRPRGTGDNRRPSSTSGSDSEESRPRARAKQVRLTCMQSCSAPVNAGPSSLASEPPGSPSTPRVSEPSGDSSAAGQPLGPAPPPPIRVRVQVQDHLFLIPVPHSSDTHSVAWLAEQAAQRYYQTCGLLPRLTLRKEGALLAPQDLIPDVLQSNDEVLAEVTSWDLPPLTDRYRRACQSLGQGEHQQVLQAVELQGLGLSFSACSLALDQAQLTPLLRALKLHTALRELRLAGNRLGDKCVAELVAALGTMPSLALLDLSSNHLGPEGLRQLAMGLPGQATLQSLEELDLSMNPLGDGCGQSLASLLHACPLLSTLRLQACGFGPSFFLSHQTALGSAFQDAEHLKTLSLSYNALGAPALARTLQSLPAGTLLHLELSSVAAGKGDSDLMEPVFRYLAKEGCALAHLTLSANHLGDKAVRDLCRCLSLCPSLISLDLSANPEISCASLEELLSTLQKRPQGLSFLGLSGCAVQGPLGLGLWDKIAAQLRELQLCSRRLCAEDRDALRQLQPSRPGPGECTLDHGSKLFFRRL
modifications: 35S-methionine
Turning to B3, the “direct binding to histones H3–H4 in vitro” value with histones H3–H4 is listed as “bound directly to histones H3–H4”.

These data come from article PMC4939875 (Nature, 2016).
